Results from the RNAGym collection of RNA variant scans (doi:10.1073/pnas.2313332121).
Fewer inactive variants are shown than the library holds.

B1: TPR 5TU (parent)
chain: GGAUCUUCUCGAUCUAACAAAAAAGACAAAUCUGCCACAAAGCUUGAGAGCAUCUUCGGAUGCAGAGGCGGCAGCCUUCGGUGGCGCGAUAGCGCCAACGUUCUCAACUAUGACACGCAAAACGCGUGCUCCGUUGAAUGGAGUUUAUCAUG

Variants of: B1
Test: polymerase ribozyme fitness, log enrichment relative to wild type (log ratio); higher = more active; in vitro selection for triplet polymerase activity
Summary of the method: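 Both subunits of a heterodimeric triplet polymerase ribozyme were given their own mutant library, built by PCR and transcribed. Each library was annealed with a biotinylated primer, the partner subunit and triplets, incubated frozen at −7 °C, and its extended constructs gel-excised, captured on streptavidin beads and amplified by RT-PCR, all in one round done in triplicate. Fitness is the logarithm of genotype enrichment relative to wild-type enrichment, with replicates averaged by inverse-variance weighting. That logarithm is base 2, and Illumina-sequenced genotypes needed ≥10 input reads and ≥1 read per output.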

Row | Variant | polymerase ribozyme fitness (log ratio)
1 | GGAUCUUCUCGAGCUAACAAAAAAGACAAAUCUGCCACAAAGCUUGAGAGCAUCUUCGGAUGCAGAGGCGGCAGCAUUCGGUGGCGCGAUAGCGCCAACGUUCUCAACUAUGACACGCAAAACGCGUGCUCCGUUGAAUGGAGUUUAUCAUG [U13G C76A] | -2.11
2 | GGAUCUUCUCGACCUAACAAAAAAGACAAAUCUGCCACAAAGCUUGAGAGCAUCUACGGGUGCAGAGGCGGCAGCCUUCGGUGGCGCGAUAGCGUCAACGUUCUGAACGAUGACACGCAAAACGCGUGCUCAGUUGAAUGGAGUGUAUCAUG [U13C U56A A60G C95U C105G U109G C132A U145G] | ≤ -4.2
3 | GGAUCUUCUCGAGCUAACAAAAAAGAGAAAUCUGCCACAAAGCUUGAGAGAAUCUUCGGAUGCAGAGGCGGCAGCCUUCGGUGCCGCGAUAGCGCCAACGUUCUCAACUAUGACACGCAAAACGCGUGCUCCGUUGAAUGGGGUUUCUCAUG [U13G C27G C51A G84C A142G A147C] | ≤ -4.2
4 | GGAUCUUCUCGAGCUAACAAUAAAGACAAAUCUGCCACAAAGCUUGAGAGCAUCUUCGGAUGCAGAGGCGGCAGCCUUCGGUGGCGCGAUAGCGCUAACGUUCUCAACUAUGACACGCAAAACGCGUGCUCCCUUGAAUGGAGUUUCUCAUG [U13G A21U C96U G133C A147C] | -4.05
5 | GGAUCUUCUCGAGCUAACAAAAAAGACAAAUCUGCCACAAAGCUUGAGAGCCUCUUCGGAUGCAGAGGCGGCAGCCUUCGGUGGGUCGAUAGCGCCAACGUUCUCAACUAUGACACGCAAAACGCGUGGUCCGUUGAAUGGAGUUUAUCAUG [U13G A52C C85G G86U C129G] | ≤ -4.2
6 | GGAUCUUCUCGAGCUAACAAAAAAGACAAAUCUGCCACAAAGCUUGAGAGCAUCUUCGGAUGCAGAGGCGGCAGCCUUCGGUGGCGCGAUUGCGCCAACGUUCUCAACUAUGACACGCAAAACGCGUGCUCCGUUGAAUGGAGUUUAUCAUG [U13G A91U] | ≤ -4.2
7 | GGAUCUUCUCGAGCUAACAAAAAAGACAAAUCUGCCACAAAGCUUGAGAGCAUCUUCGGAUGCAGAGGCGGCAGCCUUCGGUGGCGCGAUAGCGCCAACGUUCUCAACUAUGACACGCAAAACGCGUGCUCCGUUGUAUGGAGUUUAUCAUG [U13G A137U] | ≤ -4.2
8 | GGAUCUUCUCGACCUAACAAAAAAGACAAAUCUGCCACAAAGCUUGAGAGCAUCUUCGGAUGCAGAGGCGGCAGCCUUCGGUGGCGCAAUAGCGCCAAGGUUCUCAACUAUGACACGCAAAACGCGUGCUCCGUUGAAUGGAGUUUAUCAUG [U13C G88A C99G] | -4.01
9 | GGAUCUUCUCGACCUAACAAAAAAGACAAAUCUGCCACAAAGCUUGAGAGCAUCUUCGGAUGCAGAGGCGGCAGCCUUCGGUGGCGCGAUAGCCCCAACGUUCGCAACUAUGACACGCAAAACGCGUGCUCCGUUGAAUGGAGUUUAUCAUG [U13C G94C U104G] | -2.15
10 | GGAUCUUCUCGAGCUAACAAAAAAGACAAAUCUGCAACAAAGCUUGAGAGCAUCUUCGGAUGCAGAGGCGGCAGCCUUCGGUUGCGCGAUAGCGCCAAAGUUCUCAACUAUGACACGCAAAACGCGUGCUCCGUUGAAUUGAGUUUAUCAUG [U13G C36A G83U C99A G140U] | -4
11 | GGAUCUUCUCGAGCUAACAAAAAAGACAAAUCUGCCUCAAAGCUUGAGAGCAUCAUAGGAUGCAGAGGCGGCAGCUUUCGGUGGCACGAUAGCGCCAACGUUCUCAACUAUGACACGCAAAACGCGCGCUCCGUUGAAUGGAGUUUAUCAUG [U13G A37U U55A C57A C76U G86A U127C] | ≤ -4.2
12 | GGAUCUUCUCGAGCUAACAAAAAAGACAACUCUGCCACAAAGCUUGAGACCAUCUUCGGAUGCAGAGGCGGCAGCCUUCGGAGGCGCGAUAGCGCCAACGUUCUCAACUCUGACACGCAAAACGCGUGCUCCGUUUAAUGGAGUUUAUCAUG [U13G A30C G50C U82A A110C G136U] | ≤ -4.2
13 | GGAUCUUCUCGACCUAACAAAAAAGACAAAUCUGCCACAAAGCUUGAGAGCAUCUUCAGAUGCAGAGGCGGCAGCCUUCGGUGGCGCGAUAGCGCCAACGUUCUCAACUAUGACACGCAAAACGCGUGCUCCGUUGAAUGGAGUUUAUCAUG [U13C G58A] | 0.452
14 | GGAUCUUCUCGAGCUAACAAAAAAGACAAAUCUGCCACAAAGCUUGAGAGCAUCUUCGGAUGCAGAGGCGGCAGGCUUCGGUGGCGCGAUAGCGCCAACGUUCUCAACUAUGACACGCAAAACGCGUGCUCCGUUGAAUGGAGUUUAUCAUG [U13G C75G] | ≤ -4.2
15 | GGAUCUUCUCGAGCUAACAAAAAAGACAAAUCUGCCACAAAGCUUGAGAGCAUCUUCGGAUGCAGAGGCGGCAGCCUUCGGUGGUGCGAUAGCGCCAACGUUCUCGACUAUGACACGCAAAACGCUUGCUCCGUUGAAUCGAGUUUAUCAUG [U13G C85U A106G G126U G140C] | -3.96
16 | GGAUCUUCUCGAGCUAACAAAAAAGACAAAUCUGCCACCAAGCUUGAGAGCAUCUUCGGAUACAGAGGCGGCAGCCUUCGGUGGCGCGAUAGCGCCAACGUUCUCAUCUAUGACACGCAAAACGCGUGCUCCGUUGAAAGGUGUUUAUCAUG [U13G A39C G62A A107U U139A A142U] | ≤ -4.2
17 | GGAUCUUCUCGAGCUAACAAAAAAGACAACUCUGCCACAAAGCUUGAGAGCAUCUUCGGAUGCAGAGGCGGCAGCCUUCGGUGGAGCGAUAGCGCCAACGUUCUCAACUAUGACACGCAAAACGCGUGCUCCGUUGAAUGGAGUUUAUCAUG [U13G A30C C85A] | ≤ -4.2
18 | GGAUCUUCUCGAGGUAACAUAAAAGACAAAUCUGCCGCAAAGCUUGCGUGCAUCUUCGGAUGCAGAGGCGGCAGCCUUCGGUGGCGCGAUAGCGCCAAUGUUCUCAACUAUGACACGCAAAACGCGUGCUCCGUUGAAUGGAGUUUAUUAUG [U13G C14G A20U A37G A47C A49U C99U C149U] | ≤ -4.2
19 | GGAUCUUCUCGAGCUAACCAAAAAGACAGAUCUGCCACAAAGCUUGAGACCAUCUUCGGAUGCAGAGGCGGCAGCCUUCGGUGGCGCGAUAGCGCCAACGUUCUCAACUAUGACACGCAAAACGCGCGCUCCGUUGAAUGGAGUUUAUCAUG [U13G A19C A29G G50C U127C] | ≤ -4.2
